Data set [1] deals with SAKI (Substrate of AIM-1 kinase).
Sequence of SAKI (Substrate of AIM-1 kinase) (chain, as listed by the source): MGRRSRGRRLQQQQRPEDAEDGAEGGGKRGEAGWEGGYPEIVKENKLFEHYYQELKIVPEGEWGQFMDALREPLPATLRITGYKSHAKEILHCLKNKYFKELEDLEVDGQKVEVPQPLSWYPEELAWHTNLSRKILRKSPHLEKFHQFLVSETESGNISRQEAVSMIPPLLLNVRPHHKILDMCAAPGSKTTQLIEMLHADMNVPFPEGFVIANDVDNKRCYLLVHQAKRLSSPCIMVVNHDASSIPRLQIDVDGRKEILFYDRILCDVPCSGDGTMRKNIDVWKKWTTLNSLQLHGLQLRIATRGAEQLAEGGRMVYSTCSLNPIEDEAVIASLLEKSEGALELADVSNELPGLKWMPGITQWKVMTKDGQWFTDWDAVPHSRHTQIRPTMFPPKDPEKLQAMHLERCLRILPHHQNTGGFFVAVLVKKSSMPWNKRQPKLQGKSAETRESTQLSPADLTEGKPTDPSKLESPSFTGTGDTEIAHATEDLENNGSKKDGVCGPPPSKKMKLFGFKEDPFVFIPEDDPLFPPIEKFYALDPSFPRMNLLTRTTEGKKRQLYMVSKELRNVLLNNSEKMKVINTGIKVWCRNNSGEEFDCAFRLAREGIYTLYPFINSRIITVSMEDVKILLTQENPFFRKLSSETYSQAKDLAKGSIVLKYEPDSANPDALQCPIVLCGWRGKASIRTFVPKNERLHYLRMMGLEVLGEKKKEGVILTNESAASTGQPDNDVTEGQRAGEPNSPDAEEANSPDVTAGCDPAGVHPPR

B1: Aik (protein)
chain: MDRSKENCISGPVKATAPVGGPKRVLVTQQFPCQNPLPVNSGQAQRVLCPSNSSQRIPLQAQKLVSSHKPVQNQKQKQLQATSVPHPVSRPLNNTQKSKQPLPSAPENNPEEELASKQKNEESKKRQWALEDFEIGRPLGKGKFGNVYLAREKQSKFILALKVLFKAQLEKAGVEHQLRREVEIQSHLRHPNILRLYGYFHDATRVYLILEYAPLGTVYRELQKLSKFDEQRTATYITELANALSYCHSKRVIHRDIKPENLLLGSAGELKIADFGWSVHAPSSRRTTLCGTLDYLPPEMIEGRMHDEKVDLWSLGVLCYEFLVGKPPFEANTYQETYKRISRVEFTFPDFVTEGARDLISRLLKHNPSQRPMLREVLEHPWITANSSKPSNCQNKESASKQS
For B1, in the data set with H3 histone, P68431, the in-vitro phosphorylation experiments result is “both AIM-1 and Aik phosphorylated H3 histone”.

B2: AIM-1 (Aurora and Ipl1-like midbody-associated protein) (protein)
chain: MAQKENSYPWPYGRQTAPSGLSTLPQRVLRKEPVTPSALVLMSRSNVQPTAAPGQKVMENSSGTPDILTRHFTIDDFEIGRPLGKGKFGNVYLAREKKSHFIVALKVLFKSQIEKEGVEHQLRREIEIQAHLHHPNILRLYNYFYDRRRIYLILEYAPRGELYKELQKSCTFDEQRTATIMEELADALMYCHGKKVIHRDIKPENLLLGLKGELKIADFGWSVHAPSLRRKTMCGTLDYLPPEMIEGRMHNEKVDLWCIGVLCYELLVGNPPFESASHNETYRRIVKVDLKFPASVPMGAQDLISKLLRHNPSERLPLAQVSAHPWVRANSRRVLPPSALQSVA
As for B2, the in-vitro phosphorylation experiments entry with H3 histone, P68431 was “both AIM-1 and Aik phosphorylated H3 histone”. Moreover, in data set [1], the “immunoblotting with the anti-H3 histone Ser-10 phosphorylation site antibody after expression of the AIM-1 kinase-deficient mutant protein in HeLa” value is listed as “there was a protein that is seemingly phosphorylated by AIM-1 in the region close to 100 kDa”.

The values are drawn from patent US20090305255.
